Results on one substance are retold here after PMC3916842.

Assay [1] has as its target talin (human) (UniProt Q9Y490). The assay is described as follows: FRAP on a TIRF microscope.
Assay [2] has as its target talin (human) (UniProt Q9Y490). The assay is described as follows: TIRF microscopy of recruitment to a protein-micropatterned surface.
Assay [3] has as its target talin (human) (UniProt Q9Y490). The assay is described as follows: FRAP on a spinning disk confocal microscope.

In the case of “EGFP-vinculin 1-851 (Vh) (from UniProt P18206 1-851) (domain or fragment)”, the koff worked out at 0.0033 s⁻¹ with talin (human) [1], 0.0034 s⁻¹ with talin (human) [2] and 0.0029 s⁻¹ in the assay with talin (human) [3].

One may read the koff as a measure of how fast the partners let go of each other.
